Assay results as given in paper PMC6707142, “Orthogonal monoterpenoid biosynthesis in yeast constructed on an isomeric substrate” (Nature Communications, 2019).

Assays:
[1] = substrate: CC(C)=CCOP(=O)(O)OP(=O)(O)O; test: GC-MS after acid hydrolysis of prenyl diphosphates; assay type: biochemical, Solanum lycopersicum; conditions: 0.05 mM IPP, 10 mM MOPS pH 7.0, 5 mM MgCl2, 30 °C, 1 h
purified protein = substrate: C=C(C)CCO[P@@](=O)(O)OP(=O)(O)O; test: purified protein; conditions: 0.05 mM DMAPP, 10 mM MOPS pH 7.0, 5 mM MgCl2, 30 °C, 1 h
[2] = substrate: CC(C)=CCC/C(C)=C\COP(=O)(O)OP(=O)(O)O; test: GC-MS of hexane-extracted monoterpene products; assay type: biochemical, Salvia fruticosa; conditions: 20 mM MOPS pH 7.0, 20 mM MgCl2, 0.02 mM MnCl2, 30 °C, 1 h
Text: (§1) GC-MS of hexane-extracted monoterpene products on […]1

[3] = substrate: CC(C)=CCC/C(C)=C/COP(=O)(O)OP(=O)(O)O; test: GC-MS of hexane-extracted monoterpene products; assay type: biochemical, Salvia fruticosa; conditions: 20 mM MOPS pH 7.0, 20 mM MgCl2, 0.02 mM MnCl2, 30 °C, 1 h
Text: as §1

[4] = substrate: CC(C)=CCC/C(C)=C\COP(=O)(O)OP(=O)(O)O; test: GC-MS of hexane-extracted monoterpene products; assay type: biochemical, Citrus x limon; conditions: 20 mM MOPS pH 7.0, 20 mM MgCl2, 0.02 mM MnCl2, 30 °C, 1 h
Text: (§2) GC-MS of hexane-extracted monoterpene products on […]

[5] = substrate: CC(C)=CCC/C(C)=C/COP(=O)(O)OP(=O)(O)O; test: GC-MS of hexane-extracted monoterpene products; assay type: biochemical, Citrus x limon; conditions: 20 mM MOPS pH 7.0, 20 mM MgCl2, 0.02 mM MnCl2, 30 °C, 1 h
Text: as §2

Protein	Km [1] [µM]	kcat [1] [s⁻¹]	Km (purified protein) [µM]	kcat (purified protein) [s⁻¹]	Km [2] [µM]	kcat [2] [s⁻¹]	kcat/Km [2] [M⁻¹ s⁻¹]	Km [3] [µM]	kcat [3] [s⁻¹]	kcat/Km [3] [M⁻¹ s⁻¹]	Km [4] [µM]	kcat [4] [s⁻¹]	kcat/Km [4] [M⁻¹ s⁻¹]	Km [5] [µM]	kcat [5] [s⁻¹]	kcat/Km [5] [M⁻¹ s⁻¹]
SlNPPS1 (Solanum lycopersicum) (protein) SARGLNKISCSLNLQTEKLCYEDNDNDLDEELMPKHIALIMDGNRRWAKDKGLEVYEGHKHIIPKLKEICDISSKLGIQIITAFAFSTENWKRSKEEVDFLLQMFEEIYDEFSRSGVRVSIIGCKSDLPMTLQKCIALTEETTKGNKGLHLVIALNYGGYYDILQATKSIVNKAMNGLLDVEDINKNLFDQELESKCPNPDLLIRTGGEQRVSNFLLWQLAYTEFYFTNTLFPDFGEEDLKEAIMNFQQRHRRFGGHTY	66.72 ± 6.32	0.000617 ± 1.7e-05	83.69 ± 17.41	0.000683 ± 5e-05												
SfCinS1 (Salvia fruticosa; F571V) (protein, 6xHis-tagged, E. coli BL21(DE3), Ni-NTA purified) CSLQTGNEIQTERRTGGYQPTLWDFSTIQSFDSEYKEEKHLMRAAGMIDQVKMMLQEEVDSIRRLELIDDLRRLGISCHFEREIVEILNSKYYTNNEIDERDLYSTALRFRLLRQYDFSVSQEVFDCFKNAKGTDFKPSLVDDTRGLLQLYEASFLSAQGEETLRLARDFATKFLQKRVLVDKDINLLSSIERALELPTHWRVQMPNARSFIDAYKRRPDMNPTVLELAKLDFNMVQAQFQQELKEASRWWNSTGLVHELPFVRDRIVECYYWTTGVVERRQHGYERIMLTKINALVTTIDDVFDIYGTLEELQLFTTAIQRWDIESMKQLPPYMQICYLALFNFVNEMAYDTLRDKGFDSTPYLRKVWVGLIESYLIEAKWYYKGHKPSLEEYMKNSWISIGGIPILSHLFFRLTDSIEEEAAESMHKYHDIVRASCTILRLADDMGTSLDEVERGDVPKSVQCYMNEKNASEEEAREHVRSLIDQTWKMMNKEMMTSSFSKYFVEVSANLARMAQWIYQHESDGVGMQHSLVNKMLRDLLFHRYE					67.24 ± 13.30	0.0075 ± 0.000667	117	271.5 ± 95.30	0.00533 ± 0.00133	16.7						
SfCinS1 (Salvia fruticosa; F571L) (protein, 6xHis-tagged, E. coli BL21(DE3), Ni-NTA purified) CSLQTGNEIQTERRTGGYQPTLWDFSTIQSFDSEYKEEKHLMRAAGMIDQVKMMLQEEVDSIRRLELIDDLRRLGISCHFEREIVEILNSKYYTNNEIDERDLYSTALRFRLLRQYDFSVSQEVFDCFKNAKGTDFKPSLVDDTRGLLQLYEASFLSAQGEETLRLARDFATKFLQKRVLVDKDINLLSSIERALELPTHWRVQMPNARSFIDAYKRRPDMNPTVLELAKLDFNMVQAQFQQELKEASRWWNSTGLVHELPFVRDRIVECYYWTTGVVERRQHGYERIMLTKINALVTTIDDVFDIYGTLEELQLFTTAIQRWDIESMKQLPPYMQICYLALFNFVNEMAYDTLRDKGFDSTPYLRKVWVGLIESYLIEAKWYYKGHKPSLEEYMKNSWISIGGIPILSHLFFRLTDSIEEEAAESMHKYHDIVRASCTILRLADDMGTSLDEVERGDVPKSVQCYMNEKNASEEEAREHVRSLIDQTWKMMNKEMMTSSFSKYFVEVSANLARMAQWIYQHESDGLGMQHSLVNKMLRDLLFHRYE					71.82 ± 17.63	0.0107 ± 0.00133	150	55.72 ± 9.22	0.00733 ± 0.00117	133						
ClLimS (Citrus x limon) (protein, 6xHis-tagged, E. coli BL21(DE3), Ni-NTA purified; printed as (+)-S-limonene synthase) AKYKPVQCLISAKYDNLTVDRRSANYQPSIWDHDFLQSLNSNYTDEAYKRRAEELRGKVKIAIKDVIEPLDQLELIDNLQRLGLAHRFETEIRNILNNIYNNNKDYNWRKENLYATSLEFRLLRQHGYPVSQEVFNGFKDDQGGFICDDFKGILSLHEASYYSLEGESIMEEAWQFTSKHLKEVMISKNMEEDVFVAEQAKRALELPLHWKVPMLEARWFIHIYERREDKNHLLLELAKMEFNTLQAIYQEELKEISGWWKDTGLGEKLSFARNRLVASFLWSMGIAFEPQFAYCRRVLTISIALITVIDDIYDVYGTLDELEIFTDAVERWDINYALKHLPGYMKMCFLALYNFVNEFAYYVLKQQDFDLLLSIKNAWLGLIQAYLVEAKWYHSKYTPKLEEYLENGLVSITGPLIITISYLSGTNPIIKKELEFLESNPDIVHWSSKIFRLQDDLGTSSDEIQRGDVPKSIQCYMHETGASEEVARQHIKDMMRQMWKKVNAYTADKDSPLTGTTTEFLLNLVRMSHFMYLHGDGHGVQNQETIDVGFTLLFQPIPLEDKHMAFTASPGTKG											81.55 ± 7.33	0.619 ± 0.0293	7600	24.94 ± 3.76	0.306 ± 0.0147	12200
ClLimS (Citrus x limon; H570Y) (protein, 6xHis-tagged, E. coli BL21(DE3), Ni-NTA purified; printed as (+)-S-limonene synthase) AKYKPVQCLISAKYDNLTVDRRSANYQPSIWDHDFLQSLNSNYTDEAYKRRAEELRGKVKIAIKDVIEPLDQLELIDNLQRLGLAHRFETEIRNILNNIYNNNKDYNWRKENLYATSLEFRLLRQHGYPVSQEVFNGFKDDQGGFICDDFKGILSLHEASYYSLEGESIMEEAWQFTSKHLKEVMISKNMEEDVFVAEQAKRALELPLHWKVPMLEARWFIHIYERREDKNHLLLELAKMEFNTLQAIYQEELKEISGWWKDTGLGEKLSFARNRLVASFLWSMGIAFEPQFAYCRRVLTISIALITVIDDIYDVYGTLDELEIFTDAVERWDINYALKHLPGYMKMCFLALYNFVNEFAYYVLKQQDFDLLLSIKNAWLGLIQAYLVEAKWYHSKYTPKLEEYLENGLVSITGPLIITISYLSGTNPIIKKELEFLESNPDIVHWSSKIFRLQDDLGTSSDEIQRGDVPKSIQCYMHETGASEEVARQHIKDMMRQMWKKVNAYTADKDSPLTGTTTEFLLNLVRMSHFMYLHGDGYGVQNQETIDVGFTLLFQPIPLEDKHMAFTASPGTKG											23.98 ± 6.41	0.364 ± 0.0277	15200	11.76 ± 4.82	0.149 ± 0.00717	12600
ClLimS (Citrus x limon; H570I) (protein, 6xHis-tagged, E. coli BL21(DE3), Ni-NTA purified; printed as (+)-S-limonene synthase) AKYKPVQCLISAKYDNLTVDRRSANYQPSIWDHDFLQSLNSNYTDEAYKRRAEELRGKVKIAIKDVIEPLDQLELIDNLQRLGLAHRFETEIRNILNNIYNNNKDYNWRKENLYATSLEFRLLRQHGYPVSQEVFNGFKDDQGGFICDDFKGILSLHEASYYSLEGESIMEEAWQFTSKHLKEVMISKNMEEDVFVAEQAKRALELPLHWKVPMLEARWFIHIYERREDKNHLLLELAKMEFNTLQAIYQEELKEISGWWKDTGLGEKLSFARNRLVASFLWSMGIAFEPQFAYCRRVLTISIALITVIDDIYDVYGTLDELEIFTDAVERWDINYALKHLPGYMKMCFLALYNFVNEFAYYVLKQQDFDLLLSIKNAWLGLIQAYLVEAKWYHSKYTPKLEEYLENGLVSITGPLIITISYLSGTNPIIKKELEFLESNPDIVHWSSKIFRLQDDLGTSSDEIQRGDVPKSIQCYMHETGASEEVARQHIKDMMRQMWKKVNAYTADKDSPLTGTTTEFLLNLVRMSHFMYLHGDGIGVQNQETIDVGFTLLFQPIPLEDKHMAFTASPGTKG											27.06 ± 4.72	0.0317 ± 0.00217	1170	24.43 ± 6.44	0.0035 ± 0.000333	150
SfCinS1 (Salvia fruticosa) (protein, 6xHis-tagged, E. coli BL21(DE3), Ni-NTA purified) CSLQTGNEIQTERRTGGYQPTLWDFSTIQSFDSEYKEEKHLMRAAGMIDQVKMMLQEEVDSIRRLELIDDLRRLGISCHFEREIVEILNSKYYTNNEIDERDLYSTALRFRLLRQYDFSVSQEVFDCFKNAKGTDFKPSLVDDTRGLLQLYEASFLSAQGEETLRLARDFATKFLQKRVLVDKDINLLSSIERALELPTHWRVQMPNARSFIDAYKRRPDMNPTVLELAKLDFNMVQAQFQQELKEASRWWNSTGLVHELPFVRDRIVECYYWTTGVVERRQHGYERIMLTKINALVTTIDDVFDIYGTLEELQLFTTAIQRWDIESMKQLPPYMQICYLALFNFVNEMAYDTLRDKGFDSTPYLRKVWVGLIESYLIEAKWYYKGHKPSLEEYMKNSWISIGGIPILSHLFFRLTDSIEEEAAESMHKYHDIVRASCTILRLADDMGTSLDEVERGDVPKSVQCYMNEKNASEEEAREHVRSLIDQTWKMMNKEMMTSSFSKYFVEVSANLARMAQWIYQHESDGFGMQHSLVNKMLRDLLFHRYE					89.46 ± 4.99	0.203 ± 0.0445	2280	26.12 ± 2.79	0.0927 ± 0.00633	3550						
SfCinS1 (Salvia fruticosa; F571H) (protein, 6xHis-tagged, E. coli BL21(DE3), Ni-NTA purified) CSLQTGNEIQTERRTGGYQPTLWDFSTIQSFDSEYKEEKHLMRAAGMIDQVKMMLQEEVDSIRRLELIDDLRRLGISCHFEREIVEILNSKYYTNNEIDERDLYSTALRFRLLRQYDFSVSQEVFDCFKNAKGTDFKPSLVDDTRGLLQLYEASFLSAQGEETLRLARDFATKFLQKRVLVDKDINLLSSIERALELPTHWRVQMPNARSFIDAYKRRPDMNPTVLELAKLDFNMVQAQFQQELKEASRWWNSTGLVHELPFVRDRIVECYYWTTGVVERRQHGYERIMLTKINALVTTIDDVFDIYGTLEELQLFTTAIQRWDIESMKQLPPYMQICYLALFNFVNEMAYDTLRDKGFDSTPYLRKVWVGLIESYLIEAKWYYKGHKPSLEEYMKNSWISIGGIPILSHLFFRLTDSIEEEAAESMHKYHDIVRASCTILRLADDMGTSLDEVERGDVPKSVQCYMNEKNASEEEAREHVRSLIDQTWKMMNKEMMTSSFSKYFVEVSANLARMAQWIYQHESDGHGMQHSLVNKMLRDLLFHRYE					238.1 ± 34.35	0.0123 ± 0.00133	50	18.05 ± 5.07	0.0143 ± 0.0015	800						
